Tests used:
[1] = target: T1, Full length recombinant HBcAg (rHBcAg) encompassing residues 1-183 (hepatitis B virus, UniProt P03146 1-183); test: EIA, support-bound peptide, HBcAg 5 ug/ml
T1 construct: range 1-183; also called hepatitis B virus core antigen

[2] = target: T1, Full length recombinant HBcAg (rHBcAg) …; test: EIA, support-bound peptide, HBcAg 2 ug/well
[3] = target: T2, non-structural 3 protein (NS3) of the hepatitis C virus (HCV) (hepatitis C virus); test: EIA, support-bound peptide, HCV NS3 control
T2 construct: Control antigen; also called HCV NS3

[4] = target: T1, Full length recombinant HBcAg (rHBcAg) …; test: EIA, support-bound peptide, HBcAg 0.2 ug/well
[5] = target: T1, Full length recombinant HBcAg (rHBcAg) …; test: competition EIA, peptide added to HBcAg before mAb 4-2 (competitor); OD of bound mAb

T1 sequence (P03146 whole entry, the tested form may be a part): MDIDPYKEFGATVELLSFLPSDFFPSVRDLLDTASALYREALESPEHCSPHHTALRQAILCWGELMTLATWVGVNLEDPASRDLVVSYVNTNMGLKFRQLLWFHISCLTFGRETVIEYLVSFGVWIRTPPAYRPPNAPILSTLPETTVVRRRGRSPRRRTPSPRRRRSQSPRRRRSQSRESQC

Binder	OD at 490 nm [1] [OD]	OD at 405 nm [2] [OD]	OD at 405 nm [3] [OD]	OD at 405 nm [4] [OD]	OD at 490 nm [5] [OD]
CRASQSVSTSSYSYMHWY [CRASQSVSTSSYSYMHWY (SEQ. ID. No. 54)]	1.42	–	–	–	–
YCQHSWEIPYTFGGGTKLEI (also called Peptide # 21) [YCQHSWEIPYTFGGGTKLEI (SEQ. ID. No. 24)]	–	0.498	0.052	0.173	–
LVTVSAAKTTPPSVYPLVPV (also called Peptide # 35) [LVTVSAAKTTPPSVYPLVPV (SEQ. ID. No. 38)]	–	–	0.032	–	–
AVYFCARGDYDYYRRYFDLW (also called Peptide # 10) [AVYFCARGDYDYYRRYFDLW (SEQ. ID. No. 13)]	–	0.981	0.038	0.304	–
VDKSSSTAYMELTRLTSEDS (also called Peptide # 8) [VDKSSSTAYMELTRLTSEDS (SEQ. ID. No. 11)]	–	0.363	0.041	0.134	–
EKFKGRATLSVDKSSSTAYM (also called Peptide # 7) [EKFKGRATLSVDKSSSTAYM (SEQ. ID. No. 10)]	–	0.883	0.035	0.194	–
SGTDFTLNIHPVEEEDTATY [SGTDFTLNIHPVEEEDTATY (SEQ. ID. No. 22)]	–	0.649	0.206	0.205	–
VKLQQSGTEVVKPGASVKLS (also called Peptide # 1) [VKLQQSGTEVVKPGASVKLS (SEQ. ID. No. 4)]	–	0.323	0.021	0.124	–
QLNSLTSEDSAVYYCARGKG (also called Peptide # 32) [QLNSLTSEDSAVYYCARGKG (SEQ. ID. No. 35)]	–	–	0.035	–	–
EQGLEWIGWIFPGEGSTEYN (also called Peptide # 5) [EQGLEWIGWIFPGEGSTEYN (SEQ. ID. No. 8)]	–	0.706	0.182	0.256	–
QKFKGKATLTVDKSSSTAYM (also called Peptide # 30) [QKFKGKATLTVDKSSSTAYM (SEQ. ID. No. 33)]	–	1.11	0.035	0.207	–
PVEEEDTATYYCQHSWEIPY (also called Peptide # 20) [PVEEEDTATYYCQHSWEIPY (SEQ. ID. No. 23)]	–	0.625	0.124	0.207	–
FPGEGSTEYNEKFKGRATLS (also called Peptide # 6) [FPGEGSTEYNEKFKGRATLS (SEQ. ID. No. 9)]	–	0.325	0.109	0.121	–
SQSVSTSSYSYMHWY [SQSVSTSSYSYMHWY (SEQ. ID. No. 57)]	0.31	–	–	–	–
LIKYASNLESGVPARFSGSG [LIKYASNLESGVPARFSGSG (SEQ. ID. No. 20)]	–	0.357	0.02	0.112	–
SVSTSSYSYMHWY [SVSTSSYSYMHWY (SEQ. ID. No. 59)]	0.305	–	–	–	–
QSVSTSSYSYMHWY [QSVSTSSYSYMHWY (SEQ. ID. No. 58)]	0.282	–	–	–	–
STSSYSYMHWY [STSSYSYMHWY (SEQ. ID. No. 61)]	0.372	–	–	–	–
SYSYMHWY [SYSYMHWY (printed with SEQ. ID. No. 63, a number already used for …)]	0.283	–	–	–	–
PGASVKLSCKASGYIFTS [PGASVKLSCKASGYIFTS (SEQ. ID. No. 40)]	1.72	–	–	–	0.182
NPYYGSTSYNQKFKGKATLT (also called Peptide # 29) [NPYYGSTSYNQKFKGKATLT (SEQ. ID. No. 32)]	–	0.783	0.021	0.213	–

Binder	OD at 490 nm [1] [OD]	OD at 405 nm [2] [OD]	OD at 405 nm [3] [OD]	OD at 405 nm [4] [OD]	OD at 490 nm [5] [OD]
CKASGYIFTSYDIDWVRQTP (also called Peptide # 3) [CKASGYIFTSYDIDWVRQTP (SEQ. ID. No. 6)]	–	–	0.032	–	–
SYMHWY [SYMHWY (SEQ. ID. No. 65)]	0.218	–	–	–	–
GVPARFSGSGSGTDFTLNIH [GVPARFSGSGSGTDFTLNIH (SEQ. ID. No. 21)]	–	0.409	0.027	0.141	–
AVYYCARGKGTGFAYWGQGT (also called Peptide # 33) [AVYYCARGKGTGFAYWGQGT (SEQ. ID. No. 36)]	–	1.2	0.035	0.227	–
TSSYSYMHWY [TSSYSYMHWY (SEQ. ID. No. 62)]	0.317	–	–	–	–
ASQSVSTSSYSYMHWY [ASQSVSTSSYSYMHWY (SEQ. ID. No. 56)]	0.324	–	–	–	–
TFGGGTKLEIKRADAAPAV (also called Peptide # 22) [TFGGGTKLEIKRADAAPAV (SEQ. ID. No. 25)]	–	0.273	0.024	0.084	–
YDIDWVRQTPEQGLEWIGWI (also called Peptide # 4) [YDIDWVRQTPEQGLEWIGWI (SEQ. ID. No. 7)]	–	–	0.089	–	–
YSYMHWY [YSYMHWY (SEQ. ID. No. 64)]	0.245	–	–	–	–
DYYRRYFDLWGQGTTVTVS (also called Peptide # 11) [DYYRRYFDLWGQGTTVTVS (SEQ. ID. No. 14)]	–	0.356	0.022	0.133	–
SSYSYMHWY [SSYSYMHWY (SEQ. ID. No. 63)]	0.311	–	–	–	–
VDKSSSTAYMQLNSLTSEDS (also called Peptide # 31) [VDKSSSTAYMQLNSLTSEDS (SEQ. ID. No. 34)]	–	0.338	0.106	0.114	–
VSTSSYSYMHWY [VSTSSYSYMHWY (SEQ. ID. No. 60)]	0.369	–	–	–	–
KPGASVKLSCKASGYIFTS [KPGASVKLSCKASGYIFTS (SEQ. ID. No. 39)]	1.34	–	–	–	0.202
TSSYSYMHWYQQKPGQPPKL [TSSYSYMHWYQQKPGQPPKL (SEQ. ID. No. 18)]	–	1.44	0.028	0.574	–
KRADAAPAVSIFPPSSKLG (also called Peptide # 23) [KRADAAPAVSIFPPSSKLG (SEQ. ID. No. 26)]	–	0.465	0.021	0.162	–
GKSLEWIGNINPYYGSTSYN (also called Peptide # 28) [GKSLEWIGNINPYYGSTSYN (SEQ. ID. No. 31)]	–	0.289	0.028	0.114	–
TGFAYWGQGTLVTVSAAKTT (also called Peptide # 34) [TGFAYWGQGTLVTVSAAKTT (SEQ. ID. No. 37)]	–	0.898	0.035	0.192	–
SCRASQSVSTSSYSYMHWY [SCRASQSVSTSSYSYMHWY (SEQ. ID. No. 53)]	1.45	–	–	–	–
IQLQQSGAELVKPGASVKIS (also called Peptide # 24) [IQLQQSGAELVKPGASVKIS (SEQ. ID. No. 27)]	–	0.369	0.021	0.123	–
ELTRLTSEDSAVYFCARGDY (also called Peptide # 9) [ELTRLTSEDSAVYFCARGDY (SEQ. ID. No. 12)]	–	–	0.073	–	–

— patent US20020058247A1 (TRIPEP, published 2002)
